In patent publication US20190135928A1 (Bristol-Myers Squibb, published 2019):
Numbering of substitutions follows the chain as printed.

Key:
Assay in all cases: cell-based or functional assay
[1] = target: T1, human TL1A (in-house) (human, UniProt O95150 57-251, limits assumed)
T1 sequence: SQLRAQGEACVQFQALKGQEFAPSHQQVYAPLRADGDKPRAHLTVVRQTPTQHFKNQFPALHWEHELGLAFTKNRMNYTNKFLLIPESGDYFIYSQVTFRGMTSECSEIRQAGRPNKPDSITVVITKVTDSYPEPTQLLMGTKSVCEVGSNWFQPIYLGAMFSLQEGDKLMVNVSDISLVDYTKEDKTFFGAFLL

[2] = target: T1, human TL1A (in-house); remark: listed apart in the source
[3] = target: T1, human TL1A (in-house); remark: listed apart in the source
[4] = target: T1, human TL1A (in-house); remark: listed apart in the source
[5] = target: T2, TL1A expressed on transfected CHO cells (Homo sapiens (Human), UniProt O95150 1-251)
T2 sequence: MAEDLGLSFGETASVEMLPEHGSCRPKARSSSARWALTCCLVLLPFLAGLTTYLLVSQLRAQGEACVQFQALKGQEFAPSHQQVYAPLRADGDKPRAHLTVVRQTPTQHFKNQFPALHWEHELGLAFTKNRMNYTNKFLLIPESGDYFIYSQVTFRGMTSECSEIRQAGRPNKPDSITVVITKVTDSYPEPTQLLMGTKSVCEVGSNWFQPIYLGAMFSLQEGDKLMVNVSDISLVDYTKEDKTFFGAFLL

[6] = target: T3, cynomolgus TL1A (in-house) (cynomolgus monkey, UniProt G7PRK8 57-251)
T3 sequence: T1 sequence with F13L, A15D, F54L, I93V

[7] = target: T1, human TL1A (in-house); remark: listed apart in the source

B1: TL1A antibody 10A4.F7.2E8 huIgG4 (antibody, V domains shown)
VH: QLQLQESGPGLVKPSETLSLTCTVSGGSISSRSYYWGWIRQPPGKGLEWIGSIYYNGRTYYNPSLKSRVTISVDTSKNQFSLKLSSVTAADTAVYYCAREDYGDYGAFDIWGQGTMVTVSS
VL: AIQLTQSPSSLSASVGDRVTITCRASQGISSALAWYQQKPGKAPKLLIYDASSLESGVPSRFSGSGSGTDFTLTISSLQPEDFATYYCQQFNSYPLTFGGGTKVEIKR
In the case of B1, the “EC50, TL1A-driven phospho-NFkB in Hu Whole Blood(2.45 mg/ml), CD3+CD4-CD8- T-cells, Donor A, no ELN ref printed in this row” value [1] is reported as 0.83 nM, the “EC50, TL1A-driven phospho-NFkB in Hu Whole Blood(2.45 mg/ml), CD4+ T-cells, Donor A, ELN ref A010F-003” value [1] is reported as 2.64 nM and the “EC50, TL1A-driven phospho-NFkB in Hu Whole Blood(2.45 mg/ml), CD4+ T-cells, Donor A, ELN ref A010F-007” value [1] is reported as 0.77 nM. For the same binder, the “EC50, TL1A-driven phospho-NFkB in Hu Whole Blood(2.45 mg/ml), CD4+ T-cells, Donor B, ELN ref A010F-003” value [1] was 2.94 nM, the “EC50, TL1A-driven phospho-NFkB in Hu Whole Blood(2.45 mg/ml), CD4+ T-cells, Donor B, ELN ref A010F-007” value [1] was 3.24 nM and the “EC50, TL1A-driven phospho-NFkB in Hu Whole Blood(2.45 mg/ml), CD8+ T-cells, Donor A, no ELN ref printed in this row” value [1] was 0.85 nM. The “EC50, TL1A + IL-12 + IL-18 driven IFNg (Hu PBMCs) (5.9 mg/ml), Donor A, ELN ref 99932-005481” value [2] was 0.295 nM, the “EC50, TL1A + IL-12 + IL-18 driven IFNg (Hu PBMCs) (5.9 mg/ml), Donor B, ELN ref 99932-005481” value [2] was 0.241 nM and the “EC50, TL1A + IL-12 + IL-18 driven IFNg (Hu PBMCs) (2.45 mg/ml), Donor A, ELN ref 97305-032” value [3] was 0.131 nM. For the same binder, the “EC50, TL1A + IL-12 + IL-18 driven IFNg (Hu PBMCs) (2.45 mg/ml), Donor A, ELN ref 97305-037” value [3] was 0.138 nM, the “EC50, TL1A + IL-12 + IL-18 driven IFNg (Hu PBMCs) (2.45 mg/ml), Donor A, ELN ref 97305-040” value [3] was 0.167 nM and the “EC50, TL1A + IL-12 + IL-18 driven IFNg (Hu PBMCs) (2.45 mg/ml), Donor A, ELN ref 97305-041” value [3] was 0.209 nM. For the same binder, the “EC50, TL1A + IL-12 + IL-18 driven IFNg (Hu PBMCs) (2.45 mg/ml), Donor A, ELN ref 97305-044” value [3] was 0.272 nM, the “EC50, TL1A + IL-12 + IL-18 driven IFNg (Hu PBMCs) (2.45 mg/ml), Donor A, ELN ref 97305-047” value [3] was 0.095 nM and the “EC50, TL1A + IL-12 + IL-18 driven IFNg (Hu PBMCs) (2.45 mg/ml), Donor A, ELN ref 97305-050” value [3] was 0.209 nM. The “EC50, TL1A + IL-12 + IL-18 driven IFNg (Hu PBMCs) (2.45 mg/ml), Donor A, ELN ref 97305-061” value [3] was 0.26 nM, the “EC50, TL1A + IL-12 + IL-18 driven IFNg (Hu PBMCs) (2.45 mg/ml), Donor A, ELN ref 99932-005481” value [3] was 0.301 nM and the “EC50, TL1A + IL-12 + IL-18 driven IFNg (Hu PBMCs) (2.45 mg/ml), Donor B, ELN ref 97305-032” value [3] was 0.197 nM. The “EC50, TL1A + IL-12 + IL-18 driven IFNg (Hu PBMCs) (2.45 mg/ml), Donor B, ELN ref 97305-037” value [3] was 0.289 nM, the “EC50, TL1A + IL-12 + IL-18 driven IFNg (Hu PBMCs) (2.45 mg/ml), Donor B, ELN ref 97305-040” value [3] was 0.146 nM and the “EC50, TL1A + IL-12 + IL-18 driven IFNg (Hu PBMCs) (2.45 mg/ml), Donor B, ELN ref 97305-041” value [3] was 0.283 nM. For the same binder, the “EC50, TL1A + IL-12 + IL-18 driven IFNg (Hu PBMCs) (2.45 mg/ml), Donor B, ELN ref 97305-044” value [3] was 0.211 nM, the “EC50, TL1A + IL-12 + IL-18 driven IFNg (Hu PBMCs) (2.45 mg/ml), Donor B, ELN ref 97305-047” value [3] was 0.185 nM and the “EC50, TL1A + IL-12 + IL-18 driven IFNg (Hu PBMCs) (2.45 mg/ml), Donor B, ELN ref 97305-050” value [3] was 0.163 nM. For the same binder, the “EC50, TL1A + IL-12 + IL-18 driven IFNg (Hu PBMCs) (2.45 mg/ml), Donor B, ELN ref 97305-061” value [3] was 0.152 nM, the “EC50, TL1A + IL-12 + IL-18 driven IFNg (Hu PBMCs) (2.45 mg/ml), Donor B, ELN ref 99932-005481” value [3] was 0.196 nM and the “EC50, TL1A + IL-12 + IL-18 driven IFNg (Hu NKcells)(2.45 mg/ml), Donor A, ELN ref 97305-070” value [4] was 0.16 nM. The “EC50, TL1A + IL-12 + IL-18 driven IFNg (Hu NKcells)(2.45 mg/ml), Donor A, ELN ref 97305-075” value [4] was 0.147 nM, the “EC50, TL1A + IL-12 + IL-18 driven IFNg (Hu NKcells)(2.45 mg/ml), Donor B, ELN ref 97305-070” value [4] was 0.253 nM and the “EC50, TL1A + IL-12 + IL-18 driven IFNg (Hu NKcells)(2.45 mg/ml), Donor B, ELN ref 97305-075” value [4] was 0.162 nM. For the same binder, the “EC50, TL1A-expressing CHO cells + IL-12 + IL-18 driven IFNg (Hu PBMCs)(2.45 mg/ml), Donor A, ELN ref 97305-034” value [5] was 0.234 nM, the “EC50, TL1A-expressing CHO cells + IL-12 + IL-18 driven IFNg (Hu PBMCs)(2.45 mg/ml), Donor B, ELN ref 97305-034” value [5] was 0.214 nM and the “EC50, TL1A + IL-12 + IL-18 driven IFNg (Cyno PBMCs)(2.45 mg/ml), Donor A, ELN ref 97305-067” value [6] was 0.122 nM. The “EC50, TL1A + IL-12 + IL-18 driven IFNg (Cyno PBMCs)(2.45 mg/ml), Donor A, ELN ref 97305-071” value [6] was 0.154 nM, the “EC50, TL1A + IL-12 + IL-18 driven IFNg (Cyno PBMCs)(2.45 mg/ml), Donor A, ELN ref 97305-074” value [6] was 0.105 nM and the “EC50, TL1A + IL-12 + IL-18 driven IFNg (Cyno PBMCs)(2.45 mg/ml), Donor A, ELN ref 97305-076” value [6] was 0.097 nM. For the same binder, the “EC50, TL1A + IL-12 + IL-18 driven IFNg (Cyno PBMCs)(2.45 mg/ml), Donor B, ELN ref 97305-067” value [6] was 0.164 nM, the “EC50, TL1A + IL-12 + IL-18 driven IFNg (Cyno PBMCs)(2.45 mg/ml), Donor B, ELN ref 97305-071” value [6] was 0.133 nM and the “EC50, TL1A + IL-12 + IL-18 driven IFNg (Cyno PBMCs)(2.45 mg/ml), Donor B, ELN ref 97305-074” value [6] was 0.129 nM. For the same binder, the “EC50, TL1A + IL-12 + IL-18 driven IFNg (Cyno PBMCs)(2.45 mg/ml), Donor B, ELN ref 97305-076” value [6] was 0.093 nM, the “EC50, TL1A + IL-12 + IL-18 driven IFNg (Hu Tcells) (5.9 mg/ml), Donor A, ELN ref 99932-004774” value [7] was 0.171 nM and the “EC50, TL1A + IL-12 + IL-18 driven IFNg (Hu Tcells) (5.9 mg/ml), Donor A, ELN ref 99932-004955” value [7] was 0.273 nM.
